Test results reported in patent US20030109454A1 (ADHEREX TECHNOLOGIES, published 2003).

Biological target: N-cadherin expressed on transfected 3T3 cells
Assay: cell-based or functional assay

Binder | EC50 of inhibition of neurite outgrowth [µM]
Ac-WLKIDPVNGQI-NH2 [N-Ac-WLKIDPVNGQI-NH2] | 46

Biological target: N-cadherin expressed on transfected 3T3 cells
Assay: cell-based or functional assay
Remark: another data set of the same source

Binder | percent inhibition of neurite outgrowth on 3T3 cells expressing N-cadherin, peptide at 100 µg/ml [%]
Ac-INPISGQ-NH2 [N-Ac-INPISGQ-NH2] | 94.5
Ac-INAISGQ-NH2 [N-Ac-INAISGQ-NH2] | 37.2
Ac-INPASGQ-NH2 [N-Ac-INPASGQ-NH2] | 7.2
Ac-LNPISGQ-NH2 [N-Ac-LNPISGQ-NH2] | 19.2

Biological target: N-cadherin expressed on transfected 3T3 cells
Assay: cell-based or functional assay
Remark: another data set of the same source

Binder | EC50 of inhibition of neurite outgrowth on 3T3 cells expressing N-cadherin [µM]
Ac-CINPISC-NH2 (not fully specified (bridges); printed as N-Ac-CINPISC-NH2; also: cyclic peptide, linkage not given here) [N-Ac-CINPISC-NH2] | 38.1
Ac-CINPC-NH2 (also: cyclic peptide, ring type not given here) [N-Ac-CINPC-NH2] | 14.3
Ac-CINPIC-NH2 (not fully specified (bridges); also: cyclic peptide, linkage not given here) [N-Ac-CINPIC-NH2] | 38.2

Biological target: N-cadherin expressed on transfected 3T3 cells
Assay: cell-based or functional assay
Remark: another data set of the same source

Binder | percent inhibition of neurite outgrowth, peptide at 33 µg/ml [%] | percent inhibition of neurite outgrowth, peptide at 100 µg/ml [%] | percent inhibition of neurite outgrowth, peptide at 250 µg/ml [%]
Ac-IDPVNGQ-NH2 [N-Ac-IDPVNGQ-NH2] | 34.3 | 56.4 | 85.6
H-LKIDAVNGQI-OH [H-LKIDAVNGQI-OH] |  | 104 | 
Ac-WLKADAVNGQI-NH2 [N-Ac-WLKADAVNGQI-NH2] |  | 10.5 | 19.7
Ac-CIDPVNC-NH2 (not fully specified (bridges); printed as N-Ac-CIDPVNC-NH2; also: cyclic peptide, linkage not given here) [N-Ac-CIDPVNC-NH2] | 40.6 | 75.8 | 96.4
H-LKIDPANGQI-OH [H-LKIDPANGQI-OH] |  | 56.8 | 
Ac-NLKIDPVNGQI-NH2 [N-Ac-NLKIDPVNGQI-NH2] | 25.6 | 67.8 | 86.8
Ac-WLKIDAVNGQI-NH2 [N-Ac-WLKIDAVNGQI-NH2] |  | 12.4 | 52.3
Ac-WLKADPVNGQI-NH2 [N-Ac-WLKADPVNGQI-NH2] |  | 22.2 | 54.7
Ac-WLKIDPVNGQI-NH2 [N-Ac-WLKIDPVNGQI-NH2] | 19.8 | 66.9 | 83.5
H-LKIDPVNGQI-OH [H-LKIDPVNGQI-OH] |  | 46 | 
H-WLKIDPVNGQI-OH [H-WLKIDPVNGQI-OH] |  | 76.1 | 
